# According to patent US20220127350A1 (NUMAB THERAPEUTICS, published 2022):
# B1: A6 (trispecific scDb-scFv) (other)
# chain: DIQMTQSPSSLSASVGDRVTITCQASQTINYWLAWYQQKPGKAPKLLIYRASTLASGVPSRFSGSGSGTDFTLTISSLQPEDFATYYCQNYYYSTSRSYGFGGGTKLTVLGGGGGSEVQLVESGGGLVQPGGSLRLSCAASGFSLSSNAMGWVRQAPGKGLEYIGIISVGGFTYYASWAKGRFTISRDNSKNTVYLQMNSLRAEDTATYFCARDRHGGDSSGAFYLWGQGTLVTVSSGGGGSGGGGSGGGGSGGGGSDIQMTQSPSSLSASVGDRVTITCQSSESVYSNNQLSWYQQKPGQPPKLLIYDASDLASGVPSRFSGSGSGTDFTLTISSLQPEDFATYYCAGGFSSSSDTAFGGGTKLTVLGGGGGSEVQLVESGGGLVQPGGSLRLSCAASGFSFSSDYWMCWVRQAPGKGLEWIGCIYAGDVDDTDYASWARGRFTISRDNSKNTVYLQMNSLRAEDTAVYYCARVDGFDITYFDLWGQGTLVTVSSGGGGSGGGGSDIQMTQSPSSLSASVGDRVTINCQASESISSWLAWYQQKPGKRPKLLIYKASTLASGVPSRFSGSGSGTDYTLTISSLQPEDFATYYCQGYYLDSSVDDNVFGGGTKLTVLGGGGGSGGGGSGGGGSGGGGSEVQLVESGGGLVQPGGSLRLSCAASGIDFSTYGISWVRQAPGKGLEWIAYIYPDYGITDYASWVNGRFTISLDNAQNTVYLQMNSLRAEDTAVYYCARSGSYYSRGWGAHYFNLWGQGTLVTVSS
# notes: Single chain
# Columns and labels:
# human TNFα [1] = molecular target: T1, human TNFα (human, UniProt P01375 77-233); assay: cell-based or functional assay
# human IL-17A [2] = molecular target: T2, human IL-17A (human, UniProt Q16552 24-155, limits assumed); assay: cell-based or functional assay
# human TNFα [3] = molecular target: T1, human TNFα; assay: cell-based or functional assay; remark: listed apart in the source
# human TNFα [4] = molecular target: T1, human TNFα; assay: SPR (summary table), affinity to human TNF
# Description: (§1) In this experiment, the biotinylated antigens were captured using the Biotin-CAPture kit from Biacore. After each analyte injection cycle the CAP sensor chip was regenerated and new antigen was captured. Trispecific molecules were injected as analyte using a dose response multicycle kinetic assay with concentrations of the analyte ranging from 0.35 to 90 nM diluted in running buffer. Obtained sensorgrams were fitted using the 1:1 binding model.
# human serum albumin [5] = molecular target: T3, human serum albumin (human, UniProt P02768 25-609); assay: SPR (summary table), affinity to HSA at pH 5.5
# T3 construct: also called HSA
# Description: (§2) The binding to human serum albumin (HSA) and cynomolgus serum albumin (CSA) was assessed for purified trispecific molecules by running SPR spectroscopy on a MASS-1 device (Sierra Sensors). HSA was directly immobilized on a high capacity amine sensor chip (Sierra Sensors) and trispecific molecules were injected as analyte using a dose response multicycle kinetic assay with concentrations of the analyte ranging from 0.35 to 90 nM diluted either in running buffer at pH5.5 or pH7.5. Obtained sensorgrams were fitted using the 1:1 binding model. Affinity to CSA was assessed in a similar approach using a CSA immobilized sensor chip.
# human IL-17A [6] = molecular target: T2, human IL-17A; assay: SPR (summary table), affinity to human IL-17, capture setup
# Description: as §1
# human serum albumin [7] = molecular target: T3, human serum albumin; assay: SPR (MASS-1), HSA immobilised, trispecific as analyte, pH 5.5
# Description: as §2
# human serum albumin [8] = molecular target: T3, human serum albumin; assay: SPR (MASS-1), HSA immobilised, trispecific as analyte, pH 7.4
# Description: as §2
# human serum albumin [9] = molecular target: T3, human serum albumin; assay: SPR (MASS-1), trispecific immobilised, HSA injected as last analyte
# Description: (§3) All possible sequences of antigen injection were tested resulting in six possible sequences.
# (§4) To evaluate concomitant binding of each antigen to trispecific molecules, the binding level relative to the theoretical Rmax was calculated for each injection using the respective ligand and analyte molecular masses and the immobilization level of the trispecific molecules. The average of the maximum binding relative to theoretical Rmax for each antigen was obtained by averaging individual maximum binding relative to theoretical Rmax obtained for the two injections where the respective antigen was injected as first analyte (in the absence of other bound antigens). Next, the binding relative to the theoretical Rmax of each analyte injection was compared to its average maximum binding to calculate the fraction binding obtained in the presence of other bound antigens. […] The binding levels relative to the theoretical Rmax and the average of maximum binding (binding levels in the absence of other antigens) of each antigen were calculated.
# human IL-17A [10] = molecular target: T2, human IL-17A; assay: SPR (MASS-1), trispecific immobilised, antigens injected sequentially
# Description: as §3, §4
# human TNFα [11] = molecular target: T1, human TNFα; assay: as above
# Description: as §3, §4
# human serum albumin [12] = molecular target: T3, human serum albumin; assay: as above
# Description: as §3, §4
# human IL-17A [13] = molecular target: T2, human IL-17A; assay: competitive ELISA, blocking of IL-17A/IL-17RA interaction (summary table)
# Description: (§5) Finally, Tetramethylbenzidine solution was added to develop the plate for 5 to 10 minutes and the reaction was stopped with 1 M HCl. The plate was read at 450 nm and 570 nm (reference wavelength).
# human IL-17A [14] = molecular target: T2, human IL-17A; assay: SPR (Biacore T200), biotinylated antigen captured (Biotin-CAPture), trispecific as analyte;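 also: multicycle dose-response kinetics, analyte at 0.35–90 nM in running buffer, CAP chip regenerated with fresh antigen each cycle, sensorgrams fitted to a 1:1 binding model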
# Description: as §1
# human TNFα [15] = molecular target: T1, human TNFα; assay: as above
# Description: as §1
# human IL-17A [16] = molecular target: T2, human IL-17A; assay: competitive ELISA: IL-17RA coated, biotinylated IL-17A preincubated with trispecific molecule
# Description: as §5
# human IL-17A [17] = molecular target: T2, human IL-17A; assay: competitive ELISA: biotinylated human IL-17A preincubated with the trispecific molecule, then binding to coated IL-17RA detected (blocked ligand: IL-17RA) [right panel]
binder,measurement,setting,value
B1,"IC50 in L929 assay, cell viability",human TNFα [1],0.06 nM
same,"rel. IC50 in L929 assay (IC50, A13/IC50, test sample, nM)",human TNFα [1],0.2
same,"rel. IC50 to secukinumab (ng/ml) in HT-29 assay, +HSA",human IL-17A [2],26.8
same,"rel. IC50 to secukinumab (ng/ml) in HT-29 assay, -HSA",human IL-17A [2],30
same,"rel. IC50 to A13 (nM) in HT-29 assay, +HSA",human TNFα [3],1
same,"rel. IC50 to A13 (nM) in HT-29 assay, -HSA",human TNFα [3],0.6
same,Kd,human TNFα [4],0.0237 nM
same,Kd,human serum albumin [5],0.77 nM
same,Kd,human IL-17A [6],0.414 nM
same,Kd,human serum albumin [7],0.77 nM
same,koff,human serum albumin [7],0.000365 s⁻¹
same,kon,human serum albumin [7],475000 M⁻¹ s⁻¹
same,Kd,human serum albumin [8],1.25 nM
same,koff,human serum albumin [8],0.000332 s⁻¹
same,kon,human serum albumin [8],266000 M⁻¹ s⁻¹
same,relative binding level compared to average maximum binding,human serum albumin [9],~70%
same,antigen binding relative to average maximum binding,human IL-17A [10],≥ 70%
same,antigen binding relative to average maximum binding,human TNFα [11],≥ 70%
same,antigen binding relative to average maximum binding,human serum albumin [12],≥ 70%
same,"rel. IC50 (IC50, secukinumab/IC50, test sample, ng/ml)",human IL-17A [13],10
same,Kd,human IL-17A [14],0.414 nM
same,koff,human IL-17A [14],8.96e-05 s⁻¹
same,kon,human IL-17A [14],216000 M⁻¹ s⁻¹
same,Kd,human TNFα [15],0.0237 nM
same,koff,human TNFα [15],2.66e-06 s⁻¹
same,kon,human TNFα [15],112000 M⁻¹ s⁻¹
same,"rel. IC50 to secukinumab (IC50, secukinumab/IC50, test sample, ng/ml)",human IL-17A [16],10
same,IC50 (read off the curve),human IL-17A [17],~5 ng/mL
